The text below walks through data of paper doi:10.1101/2024.11.20.624382, “Reconstitution of SPO11-dependent double-strand break formation” (bioRxiv, 2024).

B1: Flag-tagged mouse SPO11 (natural protein, UniProt Q9WTK8-1 1-396, looked up)
chain: MAFAPMGPEASFFDALDRHRASLLAMVKRGAGETPAGATRVASSSEVLTAIENIIQDIIKSLARNEVPAFTIDNRSSWENIMFDDSVGLRMIPQCTTRKIRSDSPKSVKKFALILKVLSMIYKLIQSDTYATKRDIYYTDSQLFGNQAAVDSAIDDISCMLKVPRRSLHVLSTSKGLIAGNLRYMEEDGTRVQCTCSATATAVPTNIQGMQHLITDAKFLLIVEKDATFQRLLDDNFCSRMSPCIMVTGKGVPDLNTRLLVKKLWDTFHIPVFTLVDADPYGIEIMCIYKYGSMSMSFEAHNLTIPTIRWLGLLPSDIQRLNIPKDSLIPLTKHDQMKLDSILKRPYITYQPLWKKELEMMADSKMKAEIQALTLLSSDYLSRVYLPNKLRFGGWI
notes: SPO11, mouse, b splicing isoform (includes exon 2), full-length optimized coding DNA; A TEV cleavage site stands between the Flag tag and SPO11; no cleavage is described; also called FlagSPO11; SPO11b; not shown: Flag, N-terminal, kept
B3: mouse TOP6BL (Topoisomerase VIB-like) (natural protein, UniProt J3QMY9-1 1-579, looked up)
chain: MERTALAVCEILRYLIIHWKCEAGTAKGTLLDGQLVISIEALRSKHLPDSLHCIITIASTRSVYGGLNFKKFLQEIQPALPRLSAKLALASEEGGRSQDASGIAPCQVTFEVDENSQSLMTDCLVIKHFLRKIIIVHHKLKFSFSVAVNGTLSAETFGAENEPTLRLDNGVTLVVGFQRYVSKPKLNWSEAHCSRIHPVLGHPAPLFIPDAKADTGLLGELTLTPAAALCPSPKGFSSQLCRISSVSIFLYGPLGLPLLSSDQDQPSTAVFRDTSYFIDWKKYNLFMVPNLDLNLDTQSVLPDVNYKAESPEGNQSQNMNAQGPALLLFLFVDFQSDVPVQQAKIWGLHTLLTAHLSAILSESRSTVQQSIQSAVDQVWQLYHHDAKTQQRLQASLSVAVNSIMSVLTGSTRSSFRKTCLQALEAADTQEFGVKLHRIFYDITQHQFLKHCSCDTEQHLTPEKNISAQNTKDQHKNIAQEFPEESIGQAENKRPKRGSPNHGREESRVLGSARDRSPPKSATRDRELTEVSLTARGSQTQAAHGRAQAAEAASPAGGLEDLWLQEVSNLSEWLNPGHRS
notes: TOP6BL, mouse, untagged, full-length optimized coding DNA

The target of data set [1] is B3. The data set can be described thus: mass photometry; Refeyn OneMP; 28 nM protein; 25 mM HEPES-NaOH pH 7.5, 150 mM NaCl, 2 mM DTT; with 5 mM ATP. Conditions: both partners purified.
Data set [2] addresses T1, SPO11 (beta isoform), WT, in complex with TOP6BL;TOP6BL (Mus musculus;Mus musculus, UniProt Q9WTK8;J3QMY9 1-396;1-579, |).
T1 sequence 1: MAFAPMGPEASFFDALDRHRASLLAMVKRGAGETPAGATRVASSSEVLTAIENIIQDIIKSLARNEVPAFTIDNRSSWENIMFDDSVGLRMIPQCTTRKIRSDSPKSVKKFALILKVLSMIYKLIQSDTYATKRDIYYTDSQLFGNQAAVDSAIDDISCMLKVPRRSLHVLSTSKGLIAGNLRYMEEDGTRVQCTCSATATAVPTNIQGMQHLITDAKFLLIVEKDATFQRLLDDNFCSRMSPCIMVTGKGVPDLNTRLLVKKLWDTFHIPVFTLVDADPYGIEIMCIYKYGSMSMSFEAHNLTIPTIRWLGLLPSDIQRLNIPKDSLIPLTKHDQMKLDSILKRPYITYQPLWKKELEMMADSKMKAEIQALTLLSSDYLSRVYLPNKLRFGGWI
T1 sequence 2: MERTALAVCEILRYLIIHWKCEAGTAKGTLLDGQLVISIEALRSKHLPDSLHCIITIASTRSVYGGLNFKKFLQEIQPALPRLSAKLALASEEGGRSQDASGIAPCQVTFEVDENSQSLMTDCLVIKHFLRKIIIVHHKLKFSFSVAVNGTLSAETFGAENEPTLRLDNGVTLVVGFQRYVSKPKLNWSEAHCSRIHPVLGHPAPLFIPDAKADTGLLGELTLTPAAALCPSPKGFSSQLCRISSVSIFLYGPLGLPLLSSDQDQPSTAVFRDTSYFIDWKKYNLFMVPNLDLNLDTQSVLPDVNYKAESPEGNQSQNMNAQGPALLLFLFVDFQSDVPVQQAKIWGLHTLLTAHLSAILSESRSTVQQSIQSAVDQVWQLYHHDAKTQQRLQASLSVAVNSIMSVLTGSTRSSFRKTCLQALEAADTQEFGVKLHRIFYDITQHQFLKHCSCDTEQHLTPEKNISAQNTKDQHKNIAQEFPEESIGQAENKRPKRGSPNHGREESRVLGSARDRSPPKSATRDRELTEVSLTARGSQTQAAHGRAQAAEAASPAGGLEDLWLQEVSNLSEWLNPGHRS
The data set can be described thus: EMSA; apparent Kd (first monomer complex); 5 mM Mg2+, 4 C, 50 mM NaCl; doubly bound complexes form; EMSA: 25 mM Tris-HCl pH 7.5, 100 mM NaCl, 5 mM MgCl2, 2 mM DTT, 7.5% glycerol, 1 mg/ml BSA, 0.1 nM DNA, 30 C 30 min; cleavage substrate: 25 mM HEPES-NaOH pH 7.5, 50 mM NaCl, 5 mM MgCl2, 2 mM DTT, 7.5% glycerol, 1 mg/ml BSA, 4 C 30 min. To be noted: protein: recombinant;recombinant; tags: N-terminal Flag-TEV;untagged; copies: 1;1; label: internal 32P (5'-labeled before ligation); closed dumbbell, 44 bp duplex, A4 loop at both ends. A general note: In EMSA bound probe runs differently from free probe, usually more slowly.

In the data set “Flag-tagged mouse SPO11” the target is B1. As to the kind of experiment: SEC; Superdex 200 Increase 10/300 GL after anti-Flag M2 affinity purification of the co-expressed proteins; lysis buffer 25 mM HEPES-NaOH pH 7.5, 500 mM NaCl. To be noted: both partners purified. Background: Size exclusion chromatography separates by hydrodynamic size, large species first.

As to B1, in data set [1], the binding result is recorded as “binds”.

B2: oligonucleotide cleavage substrate, 44 bp duplex with A4 loops (structured_DNA)
DNA: CGGTTCAAAAGAACCGGAGCTGAATGAAGCCATACCAAACGACGAGCGTGACACAAAAGTGTCACGCTCGTCGTTTGGTATGGCTTCATTCAGCTC
modifications: circular, ligated by T4 DNA ligase
As to B2, in data set [2], the Kd stood at 1.8 nM. What is called stoichiometry N is a count of units in the complex or per binding partner. B3: the “stoichiometry N” value with Flag-tagged mouse SPO11 is 1.
